4 sequences from the supplement of paper PMC5998384 can be followed below.

Series [1] has as its system HeLa Kyoto. Nature of the series: thermal stability score vs G1/S (z-score of summed log2 fold changes over temperatures); higher = more thermally stable than in G1/S.
In series [2] the test system is HeLa Kyoto. Nature of the series: solubility in G1/S (NP-40 vs SDS abundance) (log2 ratio); higher = more soluble. To be noted: cell cycle stage: G1/S.
In series [3] the test system is HeLa Kyoto. Nature of the series: solubility change mitosis vs G1/S (difference of NP-40 vs SDS log2 ratios) (log2 ratio difference); higher = more soluble in mitosis.
Series [4] deals with HeLa Kyoto. Put plainly: melting temperature (median over replicates), in situ; higher = more thermally stable.
[5] abbreviates: cell cycle stage: early G1 (4.5 h after nocodazole release).
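Wherever melting temperature (median over replicates), in situ is given: HeLa Kyoto cells synchronized by double thymidine or nocodazole block, proteins quantified by TMT10plex mass spectrometry, three independent biological replicates.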
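Wherever solubility change mitosis vs G1/S (difference of NP-40 vs SDS log2 ratios) is given: synchronized HeLa Kyoto cells (double thymidine block for G1/S, nocodazole release for mitosis), protein amounts in NP-40 versus SDS lysates quantified by mass spectrometry, three biological replicates.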
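Wherever solubility in G1/S (NP-40 vs SDS abundance) is given: HeLa Kyoto cells arrested at G1/S by double thymidine block, proteins quantified by TMT10plex mass spectrometry in mild NP-40 versus SDS extracts, three biological replicates.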
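Wherever thermal stability score vs G1/S (z-score of summed log2 fold changes over temperatures) is given: synchronized HeLa Kyoto cells, proteins quantified by TMT10plex mass spectrometry, three biological replicates, mitosis taken 0.5 h after nocodazole release, G1/S directly after double thymidine block.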

On to “MEPEPEPAAVEVPAGRVLSARELFAARSRSQKLPQRSHGPKDFLPDGSAAQAERLRRCREELWQLLAEQRVERLGSLVAAEWRPEEGFVELKSPAGKFWQTMGFSEQGRQRLHPEEALYLLECGSIHLFHQDLPLSIQEAYQLLLTDHTVTFLQYQVFSHLKRLGYVVRRFQPSSVLSPYERQLNLDASVQHLEDGDGKRKRSSSSPRSINKKAKALDNSLQPKSLAASSPPPCSQPSQCPEEKPQESSPMKGPGGPFQLLGSLGPSPGPAREGVGCSWESGRAENGVTGAGKRRWNFEQISFPNMASDSRHTLLRAPAPELLPANVAGRETDAESWCQKLNQRKEKLSRREREHHAEAAQFQEDVNADPEVQRCSSWREYKELLQRRQVQRSQRRAPHLWGQPVTPLLSPGQASSPAVVLQHISVLQTTHLPDGGARLLEKSGGLEIIFDVYQADAVATFRKNNPGKPYARMCISGFDEPVPDLCSLKRLSYQSGDVPLIFALVDHGDISFYSFRDFTLPQDVGH [TSEN54]”, for which the thermal stability score turned out to be 0.317 in the series with HeLa Kyoto [1] (setting [5]) and 0.466 in the series with HeLa Kyoto [1] (cell cycle stage: mitosis). The “solubility in G1/S (log2)” value in the series on HeLa Kyoto [2] came out at 0.322. Further, in the series on HeLa Kyoto [3], the “solubility change mitosis (log2)” value is -0.153. Further, the melting temperature in the series with HeLa Kyoto [4] (cell cycle stage: G1/S) is 48.8 °C; in the series on HeLa Kyoto [4] (cell cycle stage: mitosis), 50 °C.

As for “MEPLSHRGLPRLSWIDTLYSNFSYGTDEYDGEGNEEQKGPPEGSETMPYIDESPTMSPQLSARSQGGGDGVSPTPPEGLAPGVEAGKGLEMRKLVLSGFLASEEIYINQLEALLLPMKPLKATATTSQPVLTIQQIETIFYKIQDIYEIHKEFYDNLCPKVQQWDSQVTMGHLFQKLASQLGVYKAFVDNYKVALETAEKCSQSNNQFQKISEELKVKGPKDSKDSHTSVTMEALLYKPIDRVTRSTLVLHDLLKHTPVDHPDYPLLQDALRISQNFLSSINEDIDPRRTAVTTPKGETRQLVKDGFLVEVSESSRKLRHVFLFTDVLLCAKLKKTSAGKHQQYDCKWYIPLADLVFPSPEESEASPQVHPFPDHELEDMKMKISALKSEIQKEKANKGQSRAIERLKKKMFENEFLLLLNSPTIPFRIHNRNGKSYLFLLSSDYERSEWREAIQKLQKKDLQAFVLSSVELQVLTGSCFKLRTVHNIPVTSNKDDDESPGLYGFLHVIVHSAKGFKQSANLYCTLEVDSFGYFVSKAKTRVFRDTAEPKWDEEFEIELEGSQSLRILCYEKCYDKTKVNKDNNEIVDKIMGKGQIQLDPQTVETKNWHTDVIEMNGIKVEFSMKFTSRDMSLKRTPSKKQTGVFGVKISVVTKRERSKVPYIVRQCVEEVEKRGIEEVGIYRISGVATDIQALKAVFDANNKDILLMLSDMDINAIAGTLKLYFRELPEPLLTDRLYPAFMEGIALSDPAAKENCMMHLLRSLPDPNLITFLFLLEHLKRVAEKEPINKMSLHNLATVFGPTLLRPSEVESKAHLTSAADIWSHDVMAQVQVLLYYLQHPPISFAELKRNTLYFSTDV [ABR]”, the thermal stability score came out at 0.864 in the series on HeLa Kyoto [1] (setting [5]) and 1.73 in the series with HeLa Kyoto [1] (cell cycle stage: mitosis). The “solubility in G1/S (log2)” value in the series on HeLa Kyoto [2] was -0.0712. Moreover, the “solubility change mitosis (log2)” value in the series with HeLa Kyoto [3] was -0.111. The melting temperature with HeLa Kyoto [4] (cell cycle stage: G1/S) worked out at 48.8 °C; in the series with HeLa Kyoto [4] (cell cycle stage: mitosis), 49.1 °C.

With “MEPRPTAPSSGAPGLAGVGETPSAAALAAARVELPGTAVPSVPEDAAPASRDGGGVRDEGPAAAGDGLGRPLGPTPSQSRFQVDLVSENAGRAAAAAAAAAAAAAAAGAGAGAKQTPADGEASGESEPAKGSEEAKGRFRVNFVDPAASSSAEDSLSDAAGVGVDGPNVSFQNGGDTVLSEGSSLHSGGGGGSGHHQHYYYDTHTNTYYLRTFGHNTMDAVPRIDHYRHTAAQLGEKLLRPSLAELHDELEKEPFEDGFANGEESTPTRDAVVTYTAESKGVVKFGWIKGVLVRCMLNIWGVMLFIRLSWIVGQAGIGLSVLVIMMATVVTTITGLSTSAIATNGFVRGGGAYYLISRSLGPEFGGAIGLIFAFANAVAVAMYVVGFAETVVELLKEHSILMIDEINDIRIIGAITVVILLGISVAGMEWEAKAQIVLLVILLLAIGDFVIGTFIPLESKKPKGFFGYKSEIFNENFGPDFREEETFFSVFAIFFPAATGILAGANISGDLADPQSAIPKGTLLAILITTLVYVGIAVSVGSCVVRDATGNVNDTIVTELTNCTSAACKLNFDFSSCESSPCSYGLMNNFQVMSMVSGFTPLISAGIFSATLSSALASLVSAPKIFQALCKDNIYPAFQMFAKGYGKNNEPLRGYILTFLIALGFILIAELNVIAPIISNFFLASYALINFSVFHASLAKSPGWRPAFKYYNMWISLLGAILCCIVMFVINWWAALLTYVIVLGLYIYVTYKKPDVNWGSSTQALTYLNALQHSIRLSGVEDHVKNFRPQCLVMTGAPNSRPALLHLVHDFTKNVGLMICGHVHMGPRRQAMKEMSIDQAKYQRWLIKNKMKAFYAPVHADDLREGAQYLMQAAGLGRMKPNTLVLGFKKDWLQADMRDVDMYINLFHDAFDIQYGVVVIRLKEGLDISHLQGQEELLSSQEKSPGTKDVVVSVEYSKKSDLDTSKPLSEKPITHKVEEEDGKTATQPLLKKESKGPIVPLNVADQKLLEASTQFQKKQGKNTIDVWWLFDDGGLTLLIPYLLTTKKKWKDCKIRVFIGGKINRIDHDRRAMATLLSKFRIDFSDIMVLGDINTKPKKENIIAFEEIIEPYRLHEDDKEQDIADKMKEDEPWRITDNELELYKTKTYRQIRLNELLKEHSSTANIIVMSLPVARKGAVSSALYMAWLEALSKDLPPILLVRGNHQSVLTFYS [SLC12A2]”, the thermal stability score in the series on HeLa Kyoto [1] (setting [5]) is 1.53; with HeLa Kyoto [1] (cell cycle stage: mitosis), 1.39. Besides, in the series with HeLa Kyoto [2], the “solubility in G1/S (log2)” value was -0.0146. The “solubility change mitosis (log2)” value in the series on HeLa Kyoto [3] is -0.137. The melting temperature with HeLa Kyoto [4] (cell cycle stage: G1/S) stood at 53.4 °C; in the series with HeLa Kyoto [4] (cell cycle stage: mitosis) it was 53.3 °C.

For “MERAVQGTDGGGGSNSSSRSSSRATSAGSSPSCSLAGRGVSSRSAAAGLGGGGSRSSPGSVAASPSGGGGRRREPALEGVLSKYTNLLQGWQNRYFVLDFEAGILQYFVNEQSKHQKPRGVLSLSGAIVSLSDEAPHMLVVYSANGEMFKLRAADAKEKQFWVTQLRACAKYHMEMNSKSAPSSRSRSLTLLPHGTPNSASPCSQRHLSVGAPGVVTITHHKSPAAARRAKSQYSGQLHEVREMMNQVEGQQKNLVHAIESLPGSGPLTALDQDLLLLKATSAATLSCLGECLNLLQQSVHQAGQPSQKPGASENILGWHGSKSHSTEQLKNGTLGSLPSASANITWAILPNSAEDEQTSQPEPEPNSGSELVLSEDEKSDNEDKEETELGVMEDQRSIILHLISQLKLGMDLTKVVLPTFILEKRSLLEMYADFMAHPDLLLAITAGATPEERVICFVEYYLTAFHEGRKGALAKKPYNPIIGETFHCSWEVPKDRVKPKRTASRSPASCHEHPMADDPSKSYKLRFVAEQVSHHPPISCFYCECEEKRLCVNTHVWTKSKFMGMSVGVSMIGEGVLRLLEHGEEYVFTLPSAYARSILTIPWVELGGKVSINCAKTGYSATVIFHTKPFYGGKVHRVTAEVKHNPTNTIVCKAHGEWNGTLEFTYNNGETKVIDTTTLPVYPKKIRPLEKQGPMESRNLWREVTRYLRLGDIDAATEQKRHLEEKQRVEERKRENLRTPWKPKYFIQEGDGWVYFNPLWKAH [OSBPL10]”, the results for the thermal stability score with HeLa Kyoto [1] (setting [5]) and with HeLa Kyoto [1] (cell cycle stage: mitosis) were -0.0143 and -0.526, respectively. For the same sequence, in the series with HeLa Kyoto [2], the “solubility in G1/S (log2)” value is 0.0171. Besides, the “solubility change mitosis (log2)” value in the series with HeLa Kyoto [3] stood at 0.13. The melting temperature was determined as 48.6 °C in the series on HeLa Kyoto [4] (cell cycle stage: G1/S) and 51 °C in the series on HeLa Kyoto [4] (cell cycle stage: mitosis).
